Data on one substance can be found in PMC11998529.

The target of this assay is mitochondrial antiviral signaling protein (MAVS), full length, Flag-tagged (human (cDNA from HEK293T)) (UniProt Q7Z434).
Sequence of UniProt Q7Z434 (Q7Z434 whole entry): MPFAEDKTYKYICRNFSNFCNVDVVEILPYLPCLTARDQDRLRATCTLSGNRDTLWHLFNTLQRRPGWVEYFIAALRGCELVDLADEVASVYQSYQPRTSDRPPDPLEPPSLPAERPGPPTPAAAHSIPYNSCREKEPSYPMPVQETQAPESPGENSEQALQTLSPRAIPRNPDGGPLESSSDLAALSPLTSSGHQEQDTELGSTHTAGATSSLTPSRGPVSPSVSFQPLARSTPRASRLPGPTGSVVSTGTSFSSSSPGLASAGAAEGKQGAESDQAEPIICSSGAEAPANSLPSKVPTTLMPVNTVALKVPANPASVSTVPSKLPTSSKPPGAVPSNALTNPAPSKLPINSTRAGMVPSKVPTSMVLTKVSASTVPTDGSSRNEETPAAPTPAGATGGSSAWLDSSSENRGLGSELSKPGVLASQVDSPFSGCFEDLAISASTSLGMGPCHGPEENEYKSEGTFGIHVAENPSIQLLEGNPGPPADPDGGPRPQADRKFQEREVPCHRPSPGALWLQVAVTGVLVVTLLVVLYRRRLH

“EV-D68 structural protein VP3, HA-tagged (from UniProt Q68T42 318-552) (natural protein)” yielded an inhibition of MAVS-activated NF-κB promoter activity, dual-luciferase reporter in HEK293T, 600 ng VP3-HA plasmid of 70%.
